B1: GST-Sec4 (natural protein)
chain: MSGLRTVSASSGNGKSYDSIMKILLIGDSGVGKSCLLVRFVEDKFNPSFITTIGIDFKIKTVDINGKKVKLQLWDTAGQERFRTITTAYYRGAMGIILVYDVTDERTFTNIKQWFKTVNEHANDEAQLLLVGNKSDMETRVVTADQGEALAKELGIPFIESSAKNDDNVNEIFFTLAKLIQEKIDSNKLVGVGNGKEGNISINSGSGNSSKSNCC
B2: purified full-length Sro7, soluble (natural protein)
chain: MFGSKRLKNVKEAFKSLKGQNSETPIENSKASFKSKNSKTSTISKDAKSSSSLKIPISSNNKNKIFSLAETNKYGMSSKPIAAAFDFTQNLLAIATVTGEVHIYGQQQVEVVIKLEDRSAIKEMRFVKGIYLVVINAKDTVYVLSLYSQKVLTTVFVPGKITSIDTDASLDWMLIGLQNGSMIVYDIDRDQLSSFKLDNLQKSSFFPAARLSPIVSIQWNPRDIGTVLISYEYVTLTYSLVENEIKQSFIYELPPFAPGGDFSEKTNEKRTPKVIQSLYHPNSLHIITIHEDNSLVFWDANSGHMIMARTVFETEINVPQPDYIRDSSTNAAKISKVYWMCENNPEYTSLLISHKSISRGDNQSLTMIDLGYTPRYSITSYEGMKNYYANPKQMKIFPLPTNVPIVNILPIPRQSPYFAGCHNPGLILLILGNGEIETMLYPSGIFTDKASLFPQNLSWLRPLATTSMAASVPNKLWLGALSAAQNKDYLLKGGVRTKRQKLPAEYGTAFITGHSNGSVRIYDASHGDIQDNASFEVNLSRTLNKAKELAVDKISFAAETLELAVSIETGDVVLFKYEVNQFYSVENRPESGDLEMNFRRFSLNNTNGVLVDVRDRAPTGVRQGFMPSTAVHANKGKTSAINNSNIGFVGIAYAAGSLMLIDRRGPAIIYMENIREISGAQSACVTCIEFVIMEYGDDGYSSILMVCGTDMGEVITYKILPASGGKFDVQLMDITNVTSKGPIHKIDAFSKETKSSCLATIPKMQNLSKGLCIPGIVLITGFDDIRLITLGKSKSTHKGFKYPLAATGLSYISTVEKNNDRKNLTVIITLEINGHLRVFTIPDFKEQMSEHIPFPIAAKYITESSVLRNGDIAIRVSEFQASLFSTVKEQDTLAPVSDTLYINGIRIPYRPQVNSLQWARGTVYCTPAQLNELLGGVNRPASKYKESIIAEGSFSERSSDDNNANHPEHQYTKPTRKGRNSSYGVLRNVSRAVETRWDAVEDRFNDYATAMGETMNEAVEQTGKDVMKGALGF

In test [1] the target is B2. Description: pull-down.
The test “GST-Sec4” concerns the target B1. Kind of test: pull-down.

In the case of B1, the binding result in test [1] was “binds”.

As to B2, the “fold binding to GTPγS-bound Sec4 over GDP-bound Sec4” value with GST-Sec4 is > 5 fold.

For the origin of these results see PMC3057708 (Molecular Biology of the Cell, 2011).
